These results are taken from the nanobody polyreactivity screen of Harvey et al. (2022).

This series can be described thus: yeast display, Sf9 membrane polyspecificity reagent, FACS + sequencing; frameworks hold sequencing errors. In short, it runs like this:
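Synthetic nanobody libraries on Saccharomyces cerevisiae BJ5465 were galactose-induced for 36–48 hours, stained 1 hour at 4 °C with 10% biotinylated, detergent-solubilized Sf9 membrane reagent and enriched on streptavidin microbeads. FACS then separated cells into low and high (top ~1%) gates by anti-HA (expression) and streptavidin (reagent binding) fluorescence. Genes were colony-PCR amplified, MiSeq 2 × 250 sequenced and CDR-length filtered. A clone's polyreactivity label is that of its gate of origin.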
Turning to “QVQLVESGGGLVQAGGSLSLSCADSGSTIYRYAMGWNRQAPGKEREFVATISRSGGGTYYADSEKGRLTISRDNAMNTVYLQMISLKPEDTSVYYCAARDVVQAGYYVKKYDYWGQGTQVTVSS”, the “polyreactivity (PSR sort gate)” value is “high polyreactivity”.

With “QVQLVESGGGLVQAGGSLSLSCASTGFIITQNAMGWYRQAHGKERYLVAAISWRAGSTYYADSVKGRFTISRDNAKNTVYLQMNSLKPEDTAVYYCATRQTKYSNYRGDYWGQGTQVTVSS”, the “polyreactivity (PSR sort gate)” value is “high polyreactivity”.

As to “QVQLVESGGGLVQAGGSLSLSCDASGRIIHSYAMGWYRQEPGKERELVAAISWSGTSTYYADSVKGRFTISRDNAKNTVYLQMNSLKPEDTEVYYCAARGRYVFDGYRMYFWGQGSQVTVSS”, the “polyreactivity (PSR sort gate)” value is “high polyreactivity”.

On to “QVQLVESGGGLVQAGGSLSLSCDASGSTFYYNAMGWYRQAPGKERELVAAITFTGGSTYADSVKGRFTISRDNAKNTVYLQMNSLKPEDTAVYYCSATIQGHDYLGTGYDYWGQGTQVTVSS”, for which the “polyreactivity (PSR sort gate)” value is listed as “low polyreactivity”.

For the sequence “QVQLVESGGGLVQAGGSLSLSCSASGSIFAGYARGWYRQAPGKERELVAAISVSGGGTYYADSVKGRFTISRDNAKNTVYLQMNSLKPEDTAVYYCAATGSSRYGRNYYSWGQGTQVTVSS”, the “polyreactivity (PSR sort gate)” value is “high polyreactivity”.

Turning to “QVQLVESGGGLVQAGGSLSLSSAASGRTFSGYAMGWYRQAPGKERELVAAIDRGDGTNYADSVKGRFTISRDNAKNTVYLQMNSLKPEDTAVYYCAADYSYGSTSHTYTGFDYWGQGTQVTVSS”, the “polyreactivity (PSR sort gate)” value is on record as “low polyreactivity”.

Turning to “QVQLVESGGGLVQAGGSLSLTCAASGRILYRYAMGWYRPAPGKERDLVAAISWSGGSTYYADSVKGRFTISRDNAKNTVYLQLYSLKPEDTAVYYCNAVRASRSGGFDYWGQGTQVTVSS”, the “polyreactivity (PSR sort gate)” value is given as “high polyreactivity”.

“QVQLVESGGGLVQAGGSLSLTWAASGRTFLEYTMGWYRQAPGKERELVAAISSTGGSTNYADSVKGRFTISRDNAKNSVYLQMNSVKPEDTAVYYCAARLRRRSATSTRMGYWGLGTQVTVSS”: the “polyreactivity (PSR sort gate)” value is recorded as “high polyreactivity”.

For the sequence “QVQLVESGGGLVQAGGSPRLSCAASGRIFGVNAMGWYRQAPGKERELVAAISVSGDSTYYADSVKGRFTISRDNAKNTVYLQMNSLKPEDTAVYYCYAGYTFVPADLTDEYYWGQGTQVTVSS”, the “polyreactivity (PSR sort gate)” value is on record as “low polyreactivity”.

Take “QVQLVESGGGLVQAGGSPRLSCAASGRTFRSNAMGWYRQAPGKERELVAAISWSGGSTYYADSVKGRFTISRDNAKNTVYLQLNSLKPEDTAVYYCAAGSYWSPYGQSFWPKYDYWGQGSQVTVSS”: the “polyreactivity (PSR sort gate)” value is given as “high polyreactivity”.

Regarding “QVQLVESGGGLVQAGGSRRISWAASGSTFPWNVMGWYRQAPGKERELVAAISSSDGRTYYADSVKGRFTISRDNAKNTVYLQMNSLNPDDTAVDYCAASVAYYWYRTWLFDYDYWGQGTEVTVSS”, the “polyreactivity (PSR sort gate)” value is “high polyreactivity”.

Regarding “QVQLVESGGGLVQAGGSRRLSCAASGLTFANYVMGWYIQAPGKERELVAAISRSGGSTYYADSVKGRFTISRDNAKNTVYLQMNSLNPEDTAVYYCAAAALDPKGSRYDYWGQGTQVTVSS”, the “polyreactivity (PSR sort gate)” value was “low polyreactivity”.

Regarding “QVQLVESGGGLVQAGGSRRLSCAASGLTVHDNGMGWYRQAPGQEREVVAAISWSDGTTYYADSVKGRVSISRDNAKNTVYLQMNSLKPEDTAVFYCAAEAYYFWDLVDEDYWGQGTQVTVSS”, the “polyreactivity (PSR sort gate)” value is “high polyreactivity”.

On to “QVQLVESGGGLVQAGGSRRLSCAASGNTFTWYTMGWYRQAPAKERELVAVITSDGSTYYADSVKGRFTISRDNAKNTVYLQMNSLKPEDTAVYYCNALSADWYPEEDYWGQGTQVTVSS”, for which the “polyreactivity (PSR sort gate)” value is recorded as “low polyreactivity”.

“QVQLVESGGGLVQAGGSRRLSCAASGRIFGVYAMGWYRQAPGKERELVAAIDRRGGRTYYADSVKGRFTISRDNAKNTVYLQMNSLKPEDTAVYYFATARYRADMGYWGQGTQVTVSS”: the “polyreactivity (PSR sort gate)” value is recorded as “high polyreactivity”.

For “QVQLVESGGGLVQAGGSRRLSCAASGRTFYKYAMGWYRQAPGKERELVAAISGGGTTNYADSVKGRFTISRDNAKNTVYLQMNSLKPEDTAVYYCNAARTRWATGYDYWGQGTQVTVSS”, the “polyreactivity (PSR sort gate)” value is “low polyreactivity”.

As to “QVQLVESGGGLVQAGGSRRLSCAASGSIFIPYVMGWYRQAPGKERELVAVITSGGDTYYADSVKGRFTISRDNAKNTVYLQMNSLKPEDTAVYYCNATFWYPPWWYEYDYWGQGTQVTVSS”, the “polyreactivity (PSR sort gate)” value is “low polyreactivity”.

As to “QVQLVESGGGLVQAGGSRRLSCAASGSIFYYNTMGWSRQAPGKERELVAAMRFDDGSTYYADSVKGRFTISRDNAKYTVYLQMNSLKPEDTAVYYCSADWIVVSEFGLDYHMDYWGQGNQVTVSS”, the “polyreactivity (PSR sort gate)” value is “low polyreactivity”.

For “QVQLVESGGGLVQAGGSRRLSCAASGSTFRANAMGWYRQAPGKERELVAAITSSGGSTYYADSVKGRFTISRDNAKNTVYLQMNSLKPEDTAVYYCAAYPRPYIGYTDGYVWYEFDYWGQGTQVTVSS”, the “polyreactivity (PSR sort gate)” value is reported as “low polyreactivity”.

With “QVQLVESGGGLVQAGGSRRLSCADSGSIFDQYTMGWSRQAPGKEWELVAGISSGGITNYADSVKGRFTLSRDNAKNTVYLQMTSLKPEDTAVYYCPADNWDLAEYDYWGQGPQVTVSS”, the “polyreactivity (PSR sort gate)” value is given as “low polyreactivity”.

Take “QVQLVESGGGLVQAGGSRRLTCAASGSTFTQYPMGWYRQAPGKERELVAGISWGGSSTYYADSVKGRFTISRDNAKNTVYLEMNSLKPEDSEVYYCASAVWREYGYYFVYWDYSWGQGTQGTVSS”: the “polyreactivity (PSR sort gate)” value was “low polyreactivity”.

For the sequence “QVQLVESGGGLVQAGGSRSLSCAASGSIFLVNAMGWYRQAPGKERELVAAINSGGSTYYADSVKGRFTISRDNAKNTVYLQMNSLKPEDTAVYYCAADFWLKVWQDTDYDYDYWGQGTQVTVSS”, the “polyreactivity (PSR sort gate)” value is “low polyreactivity”.

Take “QVQLVESGGGLVQAGGSVRLSCAASGRTSAWYAMGWYRQAPVKERELVADISGSADSTYYADSVKGRFTISRDNAKYTVYVQMHSLKPEDTAVYYRATSISTPTGDPFDYWGQRTQVTVSS”: the “polyreactivity (PSR sort gate)” value is recorded as “low polyreactivity”.

Consider “QVQLVESGGGLVQAGGSVRLSCAASGSIFGYYALGWYRQAPGTERELVAAISSGGSTKYADSVKGRFTISRDNAKNTVYLQMNSLKPEDTAVYYCATRIRSGSYPYPRYDYWGQGTQVTVSS”, for which the “polyreactivity (PSR sort gate)” value is recorded as “high polyreactivity”.

Take “QVQLVESGGGLVQAGGSVRLSCAASGSTFYHYALGWYRQAPGKERELVAAISWYGGSTYYADSVKGRFTISRDNAKNTVYLQMNSLKPEDTAVYYCAARGRARQRTSFEYWGQGTQVTVSS”: the “polyreactivity (PSR sort gate)” value was “high polyreactivity”.

Regarding “QVQLVESGGGLVQAGGTLPLSCAASGYTISRNAKGWYRQAPGKARELDAAISRGGRTNYADSVKGRFTISRDNAKNSVYLHLNSLKPEDTAVYYCAANSTTGLRSPRGAGGHDYWGQGTQVTVSS”, the “polyreactivity (PSR sort gate)” value is recorded as “high polyreactivity”.

As for “QVQLVESGGGLVQAGGTLRISCAASGSTAYVMGWYRQAPGKEMELVAAISKSGGSTYYADSVKGRFTISRDNAKNTVYLQMNSLKPEDTAVYYCAALYPTTTAYRYGYWGQGTQVTVSS”, the “polyreactivity (PSR sort gate)” value is given as “high polyreactivity”.

In the case of “QVQLVESGGGLVQAGGTLRLICAASGFTISKYAMGWYRQAPGKERELVAVISSGGLTNYADSVKGRFTISRDNAKNTVYLQMNSLKPEDSEVYYCAAIGWRTRSRFVYWGQGTQVTVAS”, the “polyreactivity (PSR sort gate)” value is reported as “high polyreactivity”.

Regarding “QVQLVESGGGLVQAGGTLRLSCAASGFIFGYNAMGWYRQAPGKERELVARINSGGNTNYADSVKGLFSISRDNAKNTVYLLMNSLKPEDTAVYYCARDASNRYDYWRQGTQVTVSS”, the “polyreactivity (PSR sort gate)” value is “low polyreactivity”.

Regarding “QVQLVESGGGLVQAGGTLRLSCAASGFIFTRYAMGWYSQAPGKERELVAAIKLSGTSTYYADSVKGRFTISRDNAKYTVYLQMNSLKPEDSAVYYCAATSSYIYPYGYWGQGTQVTVSS”, the “polyreactivity (PSR sort gate)” value is “high polyreactivity”.

In the case of “QVQLVESGGGLVQAGGTLRLSCAASGFTFGFYAMGWYRQAPGKERELVAAITWSGGSTYYADSVKGRFTISRDNAKNTVYLQMNSLKPEDTAVYYCNAYTYGSEFDYWGQGTQVTVSS”, the “polyreactivity (PSR sort gate)” value is “high polyreactivity”.

Consider “QVQLVESGGGLVQAGGTLRLSCAASGFTFTSNAMGWYRQEPGKERELVAAITSSGGITYYADSVKGRFTISRDNAKNTVYLQMNSLKPEDNAVYYCAASISSYNSPGYGYWGQGTQVTVSS”, for which the “polyreactivity (PSR sort gate)” value is “low polyreactivity”.

Regarding “QVQLVESGGGLVQAGGTLRLSCAASGFTFYSNTMGWYRQAPGKERELFAAITRTGVSTYYADSVKGRFTISRDNAKNTVYLQMNSLKPEDTAVYYCAALVKGQGTVHRYYYLGQGTQVTVSS”, the “polyreactivity (PSR sort gate)” value is reported as “high polyreactivity”.

Take “QVQLVESGGGLVQAGGTLRLSCAASGGTFATYAMGWCRQGPGKERELVAAITQSGGTTYYADSVKRRFTISRDNANNTVYLQMNSLKPEDTAVYYCNAEASQAVYYAYEYWGQGTQVTVSS”: the “polyreactivity (PSR sort gate)” value is “low polyreactivity”.

Regarding “QVQLVESGGGLVQAGGTLRLSCAASGIIFVWNAMGWYRQAPGKERELVAAITNGGSTYYADSVKGRFTISRDNAKNTVYLQMNSLKPEDTAVYYCNVRYFFRFRDDYWGQGTQVTVSS”, the “polyreactivity (PSR sort gate)” value is reported as “low polyreactivity”.

In the case of “QVQLVESGGGLVQAGGTLRLSCAASGIIFYYYAMGWYRQAPGKERELVAAITGTGSRTYYADSVKGRFTISRDNAKNTVYLQMNSLKPEDTADYYCNARSFATGSKVPARGYWGQGTQVTVSS”, the “polyreactivity (PSR sort gate)” value is listed as “high polyreactivity”.

As to “QVQLVESGGGLVQAGGTLRLSCAASGITFHRYDMGWYRQAPGKERELVADITWSGGSTYYADSVKGRFTISRDNAKNTVYLQMNSLKPEDTAVYYCAADASTYTYTPYDNWGQGTQVTVSS”, the “polyreactivity (PSR sort gate)” value was “low polyreactivity”.

For “QVQLVESGGGLVQAGGTLRLSCAASGRIFSRYVMGWYRQAPGKQRELVASISWSGGSTRYADSVKGRFTISRDNAKNTVYVQMNSLKPEDTAVYYCAARFILSKYGSGVRYNYWGQGTQVTVSS”, the “polyreactivity (PSR sort gate)” value is given as “high polyreactivity”.

Consider “QVQLVESGGGLVQAGGTLRLSCAASGRISAFNAMGWYRQAPGKERELVAAIHVSGGNTYYADSVKGRFTISRDNAKNTVYLQMNSLKPEDTAVYYCAAERRRWGVDYYYWGQGTQVTVST”, for which the “polyreactivity (PSR sort gate)” value is “high polyreactivity”.

Turning to “QVQLVESGGGLVQAGGTLRLSCAASGRISTHNAMGWYRQAPGKERELVAAITSGGRTTYADSVKGRFTISRDNAKNTVYLLMNSLKPEDTAVYYCNADTGLGSLDFDKRDYWGQGTQVTVSS”, the “polyreactivity (PSR sort gate)” value is given as “low polyreactivity”.
